Here are results for two molecules from patent publication US20040137588A1 (published 2004).

In experiment [1] the target is chimeric receptor consisting of the extracellular and membrane domain of VEGFR1 fused to the cytoplasmic domain of gp130, on 293A12 cells (UniProt P17948). Briefly: cell-based or functional assay.
For experiment [2], the target named is T1, VEGF-R2/Fc chimeric protein (R&D systems) (human, UniProt P35968 20-764).
T1 construct: Bought from R&D systems; not shown: human immunoglobulin Fc domain
T1 sequence (P35968 20-764 limits assumed, change not shown): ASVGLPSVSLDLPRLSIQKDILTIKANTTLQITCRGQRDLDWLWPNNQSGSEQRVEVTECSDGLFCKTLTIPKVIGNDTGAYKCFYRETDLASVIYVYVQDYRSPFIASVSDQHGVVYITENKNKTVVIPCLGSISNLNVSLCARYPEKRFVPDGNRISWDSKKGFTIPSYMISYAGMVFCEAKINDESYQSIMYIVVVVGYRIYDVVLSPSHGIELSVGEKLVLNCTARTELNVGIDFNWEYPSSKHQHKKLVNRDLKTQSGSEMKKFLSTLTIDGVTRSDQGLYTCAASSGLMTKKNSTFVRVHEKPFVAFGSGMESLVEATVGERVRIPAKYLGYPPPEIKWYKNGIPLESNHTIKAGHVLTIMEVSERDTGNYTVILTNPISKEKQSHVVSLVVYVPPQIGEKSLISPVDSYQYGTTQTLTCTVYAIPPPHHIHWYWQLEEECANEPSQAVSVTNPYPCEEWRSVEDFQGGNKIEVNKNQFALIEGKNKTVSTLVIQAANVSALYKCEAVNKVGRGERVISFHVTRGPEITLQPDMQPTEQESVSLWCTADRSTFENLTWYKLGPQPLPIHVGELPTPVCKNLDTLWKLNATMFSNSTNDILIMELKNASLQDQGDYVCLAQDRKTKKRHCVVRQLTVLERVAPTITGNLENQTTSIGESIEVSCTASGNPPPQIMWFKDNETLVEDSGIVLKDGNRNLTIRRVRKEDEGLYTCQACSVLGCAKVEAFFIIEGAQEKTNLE
Put plainly: SPR (Biacore 2000), VEGF-B167 immobilised, receptor injected. How it is done:
For control purposes binding of the receptors to VEGF-A₁₆₅ was also monitored. Both VEGF-B₁₆₇ and VEGF-A₁₆₅ were individually immobilised to a sensorchip using NHS/EDC chemistry according to the manufacturer's instructions. Briefly, 35 μl of NHS and EDC was injected onto the sensorchip at a flow rate of 5 μl/min to activate the sensor surface and enable covalent coupling of either VEGF-A₁₆₅ or VEGF-B₁₆₇. […] Post coupling, diaminoethane (50 mM, pH 9.0) was used to block any unbound activated sites on the sensor surface. Concentrated dimeric VEGF-B₁₆₇ (200 μg/ml) was diluted (1:10) in 20 mM sodium acetate and immobilized onto a separate channel on the sensorchip. Post coupling, diaminoethane (50 mM, pH 9.0) was used to block any unbound activated sites on the sensor surface.
At the end of each run, the surface of the sensorchip was regenerated using 2 cycles of phosphoric acid (0.1 M, 30 μl) at a flow of 50 μl/min. […] Both were diluted into 0.1% w/v BSA in PBS as a stock solution (50 μg/ml, storage −20° C.).

Experiment [3] concerns the target T2, VEGF-R1/Fc chimeric protein (R&D systems) (human, UniProt P17948 27-687, limits assumed).
T2 construct: Bought from R&D systems; also called VEGF-R1/Flt-1; soluble VEGFR1-Ig chimeric protein; not shown: human immunoglobulin Fc domain
Briefly: competition ELISA on captured VEGF-R1/Fc (100 ng/ml); competitor VEGF-A165 at 10 ng/ml, detected with biotinylated anti-VEGF-A165. On the procedure:
3. […] Plates were incubated for 90 min at room temperature.
5. VEGF-A₁₆₅ was added (indicated concentration in Buffer 20) and incubated at room temp for 1 hr. In competition experiments, VEGF-B₁₆₇ was added 30 min prior to the addition of VEGF-A₁₆₅. A range of VEGF-B₁₆₇ concentrations were used to compete with VEGF-A₁₆₅ at a final concentration of 10 ng/ml.
7. Biotinylated anti-VEGF-A₁₆₅ (10 ng/ml in Buffer 20, 100 μl) was added and incubated for 1 hr.
A general note: An ELISA detects its analyte on a solid surface through an enzyme-linked reagent.

Sequence of chimeric receptor consisting of the extracellular and membrane domain of VEGFR1 fused to the cytoplasmic domain of gp130, on 293A12 cells (P17948 other isoform, or with tags, fused parts or gaps mutant limits assumed): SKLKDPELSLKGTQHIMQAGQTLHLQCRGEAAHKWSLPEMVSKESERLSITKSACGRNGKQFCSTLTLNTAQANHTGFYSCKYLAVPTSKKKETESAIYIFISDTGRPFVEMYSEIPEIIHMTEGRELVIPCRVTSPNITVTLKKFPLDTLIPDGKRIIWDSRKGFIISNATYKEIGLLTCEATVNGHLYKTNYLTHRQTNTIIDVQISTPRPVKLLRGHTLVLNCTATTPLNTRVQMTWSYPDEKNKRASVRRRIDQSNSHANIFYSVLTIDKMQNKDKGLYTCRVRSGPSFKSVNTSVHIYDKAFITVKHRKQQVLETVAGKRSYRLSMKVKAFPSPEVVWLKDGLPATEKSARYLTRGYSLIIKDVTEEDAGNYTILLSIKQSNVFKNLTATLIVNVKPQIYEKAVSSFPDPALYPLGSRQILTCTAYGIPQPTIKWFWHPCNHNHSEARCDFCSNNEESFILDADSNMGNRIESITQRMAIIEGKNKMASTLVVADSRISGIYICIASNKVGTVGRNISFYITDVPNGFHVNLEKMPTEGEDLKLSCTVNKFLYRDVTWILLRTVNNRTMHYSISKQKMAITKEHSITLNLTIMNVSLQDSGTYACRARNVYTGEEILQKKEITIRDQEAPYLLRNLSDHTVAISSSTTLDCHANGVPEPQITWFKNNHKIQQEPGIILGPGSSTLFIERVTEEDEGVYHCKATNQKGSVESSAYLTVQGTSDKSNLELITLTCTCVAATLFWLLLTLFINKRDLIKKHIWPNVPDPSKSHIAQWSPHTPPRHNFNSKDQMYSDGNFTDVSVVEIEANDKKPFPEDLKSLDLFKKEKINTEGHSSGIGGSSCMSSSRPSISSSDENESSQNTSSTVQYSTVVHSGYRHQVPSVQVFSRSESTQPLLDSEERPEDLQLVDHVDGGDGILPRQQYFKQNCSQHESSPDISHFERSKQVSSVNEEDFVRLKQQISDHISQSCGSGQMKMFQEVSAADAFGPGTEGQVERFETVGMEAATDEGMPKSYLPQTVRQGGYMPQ
T2 sequence (P17948 27-687 limits assumed, change not shown): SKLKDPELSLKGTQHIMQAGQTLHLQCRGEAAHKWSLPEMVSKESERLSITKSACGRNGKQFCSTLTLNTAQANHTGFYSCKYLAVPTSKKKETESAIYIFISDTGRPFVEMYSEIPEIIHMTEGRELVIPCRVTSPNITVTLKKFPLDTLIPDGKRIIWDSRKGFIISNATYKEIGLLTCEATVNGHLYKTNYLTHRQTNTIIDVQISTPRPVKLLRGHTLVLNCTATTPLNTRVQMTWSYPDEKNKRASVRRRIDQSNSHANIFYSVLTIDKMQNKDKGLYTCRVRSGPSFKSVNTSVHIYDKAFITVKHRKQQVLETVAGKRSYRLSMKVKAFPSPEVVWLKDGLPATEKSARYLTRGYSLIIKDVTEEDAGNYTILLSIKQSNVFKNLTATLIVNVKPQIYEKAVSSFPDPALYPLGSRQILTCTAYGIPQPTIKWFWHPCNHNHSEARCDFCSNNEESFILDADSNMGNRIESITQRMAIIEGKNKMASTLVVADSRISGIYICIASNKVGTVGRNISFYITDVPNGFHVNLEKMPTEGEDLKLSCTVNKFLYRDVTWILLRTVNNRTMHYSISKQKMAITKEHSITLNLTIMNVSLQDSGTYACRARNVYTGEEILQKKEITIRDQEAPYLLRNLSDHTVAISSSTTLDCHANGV

In the case of “VEGF-A (commercially available recombinant protein, Example 28) (from UniProt P15692 27-191) (ligand)”, the ED50 of luciferase production in 293A12 cells with the chimeric receptor in experiment [1] was in the range of 0.01 to 0.05 µg/mL.

B1: purified refolded dimeric VEGF-B167 (ligand, human, UniProt P49765-2 22-188, looked up, not shown: small tags and cut ends)
chain: PVSQPDAPGHQRKVVSWIDVYTRATCQPREVVVPLTVELMGTVAKQLVPSCVTVQRCGGCCPDDGLECVPTGQHQVRMQILMIRYPSSQLGEMSLEEHSQCECRPKKKDSAVKPDSPRPLCPRCTQHHQRPDPRTCRCRCRRRSFLRCQGRGLELNPDTCRCRKLRR
notes: mature
Broadly, the IC50 is the concentration that inhibits the measured activity by half. For B1, the binding result in experiment [2] was “no binding”. In addition, the half-inhibitory concentration (IC50) in experiment [3] was approximately 0.02 µg/mL.
